Experimental data taken from patent publication US6391584B1, “Expression-cloning method for identifying target proteins for eukaryotic tyrosine kinases and novel target proteins” (New York University Medical Center, priority 1991, dated 2002).

Target: T1, EGFR (Homo sapiens, UniProt P00533)
T1 construct: Full length EGFR was immunoprecipitated with Mab108, and allowed to autophosphorylate; expressed in transfected cells; host or cells: NIH-3T3 cells transfected with wild-type EGFR (HER14)
Experiment: Binding of PLC-γ to immunoprecipitated, autophosphorylated full length EGFR; fraction remaining bound after washes
Conditions: Mean+/−SEM, n=4; anti PLC-γ blot with (125I)Protein A, bands quantitated in a γ counter
Procedure: FIG. 11 is a gel pattern showing that phosphorylation of PLC-γ reduces its binding to the EGF receptor. Full length EGFR was immunoprecipitated with Mab108, and allowed to autophosphorylate. Lysate from PLC-γ overexpressing 3T-P1 cells was added and mixed for 90 min at 4° C. After binding, ATP was added to one half of the samples allowing the PLC-γ molecules to be phosphorylated by the EGF receptor. SDS-PAGE sample buffer-was then added to one half of the EGFR-PLC-γ complexes (NO WASH, left panel) and directly loaded onto the 6% gel. The other half was washed three times with HNTG and then loaded on the gel (WASH, right panel. After running duplicate samples on SDS-PAGE, the proteins were transferred to nitrocellulose and probed with anti PLC-γ and (^125I)Protein A. The bands were subsequently cut from the nitrocellulose and quantitated in a γ counter. After three washes with HNTG, 50+/−5% (Mean+/−SEM, n=4) of the non-phosphorylated PLC-γ remained bound to the EGFR while only 22+/−4% of the phosphorylated PLC-γ remained (exposure time: 12 h).
The techniques used are described in several references from the present inventors, laboratory (Margolis, B. L. et al., J. Biol. Chem. 264: 10667-10671 (1989); Cell 57:1101-1107 (1989)). […]

B1: phosphorylated PLC-γ: PLC-γ from 3T-P1 cell lysate phosphorylated by the EGF receptor after addition of ATP (protein, UniProt Q62077 2-1302, looked up)
1-phosphatidylinositol …: AGVATPCANGCGPGAPSEAEVLHLCRSLEVGTVMTLFYSKKSQRPERKTFQVKLETRQITWSRGADKIEGSIDIREIKEIRPGKTSRDFDRYQEDPAFRPDQSHCFVILYGMEFRLKTLSLQATSEDEVNMWIKGLTWLMEDTLQAATPLQIERWLRKQFYSVDRNREDRISAKDLKNMLSQVNYRVPNMRFLRERLTDLEQRSGDITYGQFAQLYRSLMYSAQKTMDLPFLETNALRTGERPEHCQVSLSEFQQFLLEYQGELWAVDRLQVQEFMLSFLRDPLREIEEPYFFLDELVTFLFSKENSVWNSQLDAVCPDTMNNPLSHYWISSSHNTYLTGDQFSSESSLEAYARCLRMGCRCIELDCWDGPDGMPVIYHGHTLTTKIKFSDVLHTIKEHAFVASEYPVILSIEDHCSIAQQRNMAQHFRKVLGDTLLTKPVDIAADGLPSPNQLRRKILIKHKKLAEGSAYEEVPTSVMYSENDISNSIKNGILYLEDPVNHEWYPHYFVLTSSKIYYSEETSSDQGNEDEEEPKEASSSTELHSSEKWFHGKLGAGRDGRHIAERLLTEYCIETGAPDGSFLVRESETFVGDYTLSFWRNGKVQHCRIHSRQDAGTPKFFLTDNLVFDSLYDLITHYQQVPLRCNEFEMRLSEPVPQTNAHESKEWYHASLTRAQAEHMLMRVPRDGAFLVRKRNEPNSYAISFRAEGKIKHCRVQQEGQTVMLGNSEFDSLVDLISYYEKHPLYRKMKLRYPINEEALEKIGTAEPDYGALYEGRNPGFYVEANPMPTFKCAVKALFDYKAQREDELTFTKSAIIQNVEKQDGGWWRGDYGGKKQLWFPSNYVEEMINPAVLEPEREHLDENSPLGDLLRGVLDVPACQIAIRPEGKNNRLFVFSISMPSVAQWSLDVAADSQEELQDWVKKIREVAQTADARLTEGKMMERRKKIALELSELVVYCRPVPFDEEKIGTERACYRDMSSFPETKAEKYVNKAKGKKFLQYNRLQLSRIYPKGQRLDSSNYDPLPMWICGSQLVALNFQTPDKPMQMNQALFMAGGHCGYVLQPSTMRDEAFDPFDKSSLRGLEPCVICIEVLGARHLPKNGRGIVCPFVEIEVAGAEYDSTKQKTEFVVDNGLNPVWPAKPFHFQISNPEFAFLRFVVYEEDMFSDQNFLAQATFPVKGLKTGYRAVPLKNNYSEDLELASLLIKIDIFPAKENGDLSPFSGISLRERASDASSQLFHVRAREGSFEARYQQPFEDFRISQEHLADHFDSRERSTSDGPSSATNLIEDPLHDKLWKCSL
modifications: tyrosine phosphorylated by EGF receptor
notes: PLC-γ from 3T-P1 cell lysate phosphorylated by the EGF receptor after addition of ATP
PLC-γ remaining bound to the EGFR after three washes with HNTG: 22+/−4%
